What was measured:
mass photometry = molecular target: the molecule itself; experiment: mass photometry
SAXS = molecular target: the molecule itself; experiment: SAXS

B1: CCDC6-RET fusion product (CCDC6 residues 1-101 fused to RET residues 713-1072), wild type, apo (un-phosphorylated) state (enzyme, human, UniProt Q16204 1-101, looked up)
chain: MADSASESDTDGAGGNSSSSAAMQSSCSSTSGGGGGGGGGGGGGKSGGIVISPFRLEELTNRLASLQQENKVLKIELETYKLKCKALQEENRDLRKASVTIEDPKWEFPRKNLVLGKTLGEGEFGKVVKATAFHLKGRAGYTTVAVKMLKENASPSELRDLLSEFNVLKQVNHPHVIKLYGACSQDGPLLLIVEYAKYGSLRGFLRESRKVGPGYLGSGGSRNSSSLDHPDERALTMGDLISFAWQISQGMQYLAEMKLVHRDLAARNILVAEGRKMKISDFGLSRDVYEEDSYVKRSQGRIPVKWMAIESLFDHIYTTQSDVWSFGVLLWEIVTLGGNPYPGIPPERLFNLLKTGHRMERPDNCSEEMYRLMLQCWKQEPDKRPVFADISKDLEKMMVKRRDYLDLAASTPSDSLIYDDGLSEEETPLVDCNNAPLPRALPSTWIENKLYGRISHAFTRF
modifications: activation loop Tyr 900 and c-terminal Ser 1034 showed high levels of phosphorylation in the basal state
B1 was tested, and the “stoichiometry N” value (mass photometry) was 2.

B2: CCDC6-RET lacking the c-terminal segment of RET (CCDC6 1-101 fused to RET aa 713-1013) (enzyme, human, UniProt Q16204 1-101, looked up)
chain: MADSASESDTDGAGGNSSSSAAMQSSCSSTSGGGGGGGGGGGGGKSGGIVISPFRLEELTNRLASLQQENKVLKIELETYKLKCKALQEENRDLRKASVTIEDPKWEFPRKNLVLGKTLGEGEFGKVVKATAFHLKGRAGYTTVAVKMLKENASPSELRDLLSEFNVLKQVNHPHVIKLYGACSQDGPLLLIVEYAKYGSLRGFLRESRKVGPGYLGSGGSRNSSSLDHPDERALTMGDLISFAWQISQGMQYLAEMKLVHRDLAARNILVAEGRKMKISDFGLSRDVYEEDSYVKRSQGRIPVKWMAIESLFDHIYTTQSDVWSFGVLLWEIVTLGGNPYPGIPPERLFNLLKTGHRMERPDNCSEEMYRLMLQCWKQEPDKRPVFADISKDLEKMMVKRR
B2: binds (SAXS).

From doi:10.1101/2025.01.14.632894 (bioRxiv, 2025)
